Assay results: publication PMC5358979

Assays:
[1] = test system: FEN1 WT (Homo sapiens); experiment: smFRET; details: smFRET reaction buffer with CaCl2 (binding) or MgCl2 (cleavage), SPR in same buffer with CaCl2, no oxygen scavenger, salt, pH and temperature not given in the …; for Kd: Ca2+, Kd-bending
[2] = test system: FEN1 WT (Homo sapiens); experiment: smFRET dwell-time kinetics; details: smFRET reaction buffer with CaCl2 (binding) or MgCl2 (cleavage); SPR in same buffer with CaCl2, no oxygen scavenger; salt, pH and temperature not given in the …

Substance	Kd [2] [nM]	Kd [1] [nM]	further results
DF-7,1mismatch(1nt)			binding signal (fold Kd-bending increase vs DF-6,1) [1]: 7
EQ DF-6,1Flap	3.2		
NonEQ DF-6,1Flap		3.9	
NonEQ DF-6,1dsDNA		4.6	
SF-6,0Flap	166		
